{"source": "paper PMC2868043", "about": "“The Yeast Cell Fusion Protein Prm1p Requires Covalent Dimerization to Promote Membrane Fusion” (PLoS ONE, 2010)", "proteins": {"B1": {"name": "Prm1-GFP (natural protein, S. cerevisiae, UniProt P53835 1-661, looked up)", "chain": "MSGFKCYLQLGDRLSQIWLNKYTLVLLLAMLKLLFFSKSIQHAIEVSETYILSNCYSIDSLYSKMTDNTPHYLGIMGNYLIEKGMEETVKATLETLSLIVYASEGLVNFAIDLYLGTYACLIVSAVDGTVDVATNITEKLISLVNDTVSSVANELDTGLNDISKIINKVIKAASKVENFFTGDDDDSNMTSSIKSVNLTISALHNLYIPSSINDKLEELSAKTPDFAQVKNTTKNLISVPFNEVRKNIKAVNASNIIGDTSVLYVPPVSLDNSTGICSSNQSEILAFYSILGHVLKIATVVCITVLICFAVGAMAPVAWNEIKLWRRLCGMRDHYMLSRQDSYTSFSSENTHELKDPFRDPPIQNGQYDVIASYQQCFQTWNTRIAGWMTNLVTFGKSPENIDPKTKQKIEWVVAYMTSERALCVLGIGLLGILVCICQFVMIALLKHKISHSLTSNDGDGVQNLLKSSTAVDIENQMSLWSVQTNKYINTTETNINQEVFGWINTTTLSVNNTVATMISDIDTTLADVFNGTLLYNPMKTVVGCAIENKLYTIEKAMTWIHDKAQLHIPRINGTQIKQALAKQTDNSTIPTASSTSAATENLLENLVNDMREGLLKILRAYHRITLGELTVALVILAVWLVQLPIALVILRLRLRKATFD", "notes": "Prm1p, mating-specific multipass membrane protein of S. cerevisiae; monomer 73 kD; Glycosylated (sugar modifications); Forms a disulfide-linked homodimer; also called Prm1p; source: S. cerevisiae (W303 derivatives), PRM1 promoter, induced with α-factor or by mating; in whole cell lysate or Triton X-100 solubilised membranes; not shown: GFP, C-terminal, kept"}, "B2": {"name": "HA-Prm1p (natural protein, S. cerevisiae, UniProt P53835 1-661, looked up)", "chain": "MSGFKCYLQLGDRLSQIWLNKYTLVLLLAMLKLLFFSKSIQHAIEVSETYILSNCYSIDSLYSKMTDNTPHYLGIMGNYLIEKGMEETVKATLETLSLIVYASEGLVNFAIDLYLGTYACLIVSAVDGTVDVATNITEKLISLVNDTVSSVANELDTGLNDISKIINKVIKAASKVENFFTGDDDDSNMTSSIKSVNLTISALHNLYIPSSINDKLEELSAKTPDFAQVKNTTKNLISVPFNEVRKNIKAVNASNIIGDTSVLYVPPVSLDNSTGICSSNQSEILAFYSILGHVLKIATVVCITVLICFAVGAMAPVAWNEIKLWRRLCGMRDHYMLSRQDSYTSFSSENTHELKDPFRDPPIQNGQYDVIASYQQCFQTWNTRIAGWMTNLVTFGKSPENIDPKTKQKIEWVVAYMTSERALCVLGIGLLGILVCICQFVMIALLKHKISHSLTSNDGDGVQNLLKSSTAVDIENQMSLWSVQTNKYINTTETNINQEVFGWINTTTLSVNNTVATMISDIDTTLADVFNGTLLYNPMKTVVGCAIENKLYTIEKAMTWIHDKAQLHIPRINGTQIKQALAKQTDNSTIPTASSTSAATENLLENLVNDMREGLLKILRAYHRITLGELTVALVILAVWLVQLPIALVILRLRLRKATFD", "notes": "Prm1p, S. cerevisiae, under control of the GAL1 promoter; also called GALPRO-HA-PRM1; source: S. cerevisiae (W303 derivative), genomic GAL1 promoter fusion, galactose induced; in whole cell lysate"}, "B3": {"name": "Prm1-myc (natural protein, S. cerevisiae, UniProt P53835 1-661, looked up)", "chain": "MSGFKCYLQLGDRLSQIWLNKYTLVLLLAMLKLLFFSKSIQHAIEVSETYILSNCYSIDSLYSKMTDNTPHYLGIMGNYLIEKGMEETVKATLETLSLIVYASEGLVNFAIDLYLGTYACLIVSAVDGTVDVATNITEKLISLVNDTVSSVANELDTGLNDISKIINKVIKAASKVENFFTGDDDDSNMTSSIKSVNLTISALHNLYIPSSINDKLEELSAKTPDFAQVKNTTKNLISVPFNEVRKNIKAVNASNIIGDTSVLYVPPVSLDNSTGICSSNQSEILAFYSILGHVLKIATVVCITVLICFAVGAMAPVAWNEIKLWRRLCGMRDHYMLSRQDSYTSFSSENTHELKDPFRDPPIQNGQYDVIASYQQCFQTWNTRIAGWMTNLVTFGKSPENIDPKTKQKIEWVVAYMTSERALCVLGIGLLGILVCICQFVMIALLKHKISHSLTSNDGDGVQNLLKSSTAVDIENQMSLWSVQTNKYINTTETNINQEVFGWINTTTLSVNNTVATMISDIDTTLADVFNGTLLYNPMKTVVGCAIENKLYTIEKAMTWIHDKAQLHIPRINGTQIKQALAKQTDNSTIPTASSTSAATENLLENLVNDMREGLLKILRAYHRITLGELTVALVILAVWLVQLPIALVILRLRLRKATFD", "notes": "Prm1p, mating-specific multipass membrane protein of S. cerevisiae; Made by replacing the GFP of the PRM1-GFP plasmid with the tag of a PRM1-myc strain, so the tag is probably C-terminal; also called Prm1p; source: S. cerevisiae (W303 derivatives), PRM1 promoter, mating cells; in Triton X-100 solubilised membranes, or purified by α-myc immunoprecipitation"}}, "key": {"[1]": {"target": "the molecule itself", "assay": "non-reducing SDS-PAGE and Western blot; whole cell lysate, reducing agent omitted from the sample buffer; cells induced with 10 µg/ml α-factor for 90 min (GFP alleles, anti-GFP blot) or with galactose (HA-PRM1, anti-HA blot); shows only SDS-resistant covalent dimers"}, "[2]": {"target": "the molecule itself", "assay": "non-reducing SDS-PAGE + affinity purification with mass spectrometry; Prm1p purified from mating cells under native conditions by α-myc immunoprecipitation, eluted with 2% SDS, 10% bis-Tris gel, colloidal blue staining; unreduced sample analysed by mass spectrometry (data not shown)"}}, "data": [{"protein": "B1", "values": [{"measurement": "stoichiometry N", "setting": "[1]", "value": 2}]}, {"protein": "B2", "values": [{"measurement": "stoichiometry N", "setting": "[1]", "value": 2}]}, {"protein": "B3", "values": [{"measurement": "stoichiometry N", "setting": "[2]", "value": 2}]}]}
